Experimental data published in article PMC5593896, “A signal-on built in-marker electrochemical aptasensor for human prostate-specific antigen based on a hairbrush-like gold nanostructure”.

Target: prostate-specific antigen (PSA) (human, UniProt P07288 25-261)
Assay: electrochemical aptasensor (signal-on, MB marker); immobilized aptamer; linear range 0.125-128 ng/mL, LOD 50 pg/mL (40 in Table 1); no Kd in material; 20 mM Tris-HCl pH 7.4, 1 h at 37 °C, then rinsed with Tris; salt not stated
Details: protein: commercial; label: methylene blue (3', redox marker)

Sequence of prostate-specific antigen (PSA) (P07288 25-261): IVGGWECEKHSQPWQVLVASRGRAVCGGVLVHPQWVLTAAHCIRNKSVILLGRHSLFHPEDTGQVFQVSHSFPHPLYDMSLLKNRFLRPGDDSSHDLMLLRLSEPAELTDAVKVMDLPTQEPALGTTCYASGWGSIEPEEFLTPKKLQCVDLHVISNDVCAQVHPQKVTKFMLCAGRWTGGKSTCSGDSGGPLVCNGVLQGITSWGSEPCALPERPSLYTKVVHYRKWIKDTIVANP

TTTTTAATTAAAGCTCGCCATCAAATAGCTTT (ssDNA, 5' SH-(CH2)6; 3' methylene blue) [PSA aptamer (SH/MB)]: binds.
